# B1: IRBIT: novel IP3 receptor-binding protein of 530 amino acids, SEQ ID NO: 1 (protein, listed as Mus musculus)
# chain: MSMPDAMPLPGVGEELKQAKEIEDAEKYSFMATVTKAPKKQIQFADDMQEFTKFPTKTGRRSLSRSISQSSTDSYSSAASYTDSSDDEVSPREKQQTNSKGSSNFCVKNIKQAEFGRREIEIAEQDMSALISLRKRAQGEKPLAGAKIVGCTHITAQTAVLIETLCALGAQCRWSACNIYSTQNEVAAALAEAGVAVFAWKGESEDDFWWCIDRCVNMDGWQANMILDDGGDLTHWVYKKYPNVFKKIRGIVEESVTGVHRLYQLSKAGKLCVPAMNVNDSVTKQKFDNLYCCRESILDGLKRTTDVMFGGKQVVVCGYGEVGKGCCAALKALGAIVYITEIDPICALQACMDGFRVVKLNEVIRQVDVVITCTGNKNVVTREHLDRMKNSCIVCNMGHSNTEIDVTSLRTPELTWERVRSQVDHVIWPDGKRVVLLAEGRLLNLSCSTVPTFVLSITATTQALALIELYNAPEGRYKQDVYLLPKKMDEYVASLHLPSFDAHLTELTDDQAKYLGLNKNGPFKPNYYRY
# What was measured:
# [1] = S-adenosylhomocysteine hydrolase activity in the hydrolytic direction; format: biochemical; settings: recombinant protein expressed in Escherichia coli; hydrolysis direction
# Method: The S-adenosylhomocysteine hydrolase activity in the hydrolytic direction of recombinant IRBIT-His (open circle), GST-IRBIT (triangle), GST (square), and S-adenosylhomocysteine hydrolase (closed circle) were measured according to the known method (43). Results are shown as the mean±standard deviation from three independent experimental results.
# To assay S-adenosylhomocysteine hydrolase activity in the hydrolytic direction, the color developed by the reaction between the product (Homocysteine) and 5,5′-dithiobis (2-nitrobenzoic acid) (Sigma) was measured spectroscopically using the purified IRBIT-His (3.0 μg), GST-IRBIT (4.3 μg), GST (1.3 μg) and rabbit S-adenosylhomocysteine hydrolase (Sigma) (2.4 μg), according to the known method (43). Absorbance at 412 nm was measured 0, 5, 20 and 60 minutes later using a DU 640 spectrophotometer (Beckman). Results are shown as the mean±standard deviation from three independent experiments (FIG. 2).
# IP3R1 = target: T1, IP3R1 (Mus musculus, UniProt P11881, N1264K/P2675L); test: Co-immunoprecipitation from mouse cerebellar crude microsome; format: binding; settings: detergent extract of mouse cerebellar crude microsome
# T1 construct: from tissue; host or cells: mouse cerebellum, detergent extract of crude microsome
# Method: The detergent extract of mouse cerebellar crude microsome was immunoprecipitated with anti-IRBIT antibody or control antibody. The immunoprecipitates were subjected to SDS-PAGE followed by Western blotting with anti-IP3R1 antibody (upper panel) or anti-IRBIT (lower panel) antibody.
# Detergent-solubilized extract from the crude microsome was prepared with 1% Nonidet P-40-containing 50 mM Hepes (pH 7.4), 1 mM MgCl2, and protease inhibitors for 30 minutes at 4° C., and centrifuged at 20,000×g for 30 minutes. The supernatant was diluted 10-fold in an immunoprecipitation buffer (10 mM Hepes (pH 7.4), 150 mM NaCl, 1 mM MgCl2, and 1% Nonidet P-40) and incubated with rabbit anti-IRBIT antibody (3 μg) or control rabbit IgG (3 μg) for 2 hours at 4° C. Protein G Sepharose 4 fast flow (Amersham Pharmacia Biotech) was added for reaction with immune complexes for 2 hours at 4° C. Resins were washed three times with an immunoprecipitation buffer and subjected to Western blotting with anti-IRBIT antibody or mouse anti-IP3R1 antibody KM1112 (47).
# GST-EL (IP3R) = target: T2, GST-EL (IP3R) (Mus musculus, UniProt P11881, N1264K); test: [3H]IP3 binding to GST-EL; settings: IRBIT treated with alkaline phosphatase
# T2 construct: construct a GST-IP3R1 (1-2217) vector (termed GST-EL); made in house; host or cells: GST-EL: Sf9 cells; His-IRBIT: Sf9 cells or E. coli
# Method: (A) 0.2 μg of GST-EL was incubated with 0.1, 1, or 10 μg of purified His-tagged IRBIT expressed in Sf9 cells or E. coli in a solution containing 50 mM Tris-HCl (pH 8.0), 1 mM EDTA, and 1 mM 2-mercaptoethanol, for 30 min on ice. Then 8.7 nM [^3H]IP3 (PerkinElmer Life Sciences) was added to the samples and incubated for 10 min on ice (total volume was 50 μl). The samples were mixed with 2 μl of 50 mg/ml γ-globulin and 50 μl of 30% PEG6000, 50 mM Tris-HCl (pH 8.0), and incubated for 5 min on ice. Non-specific binding was measured in the presence of 10 μM cold IP3. After centrifugation at 20,000×g for 5 min, the precipitate was dissolved in SOLVABLE™ (Packard) and the radioactivity was measured with a liquid scintillation counter (Beckman Coulter). Results are shown as the mean±S.D. from three independent experiments. (B) Purified His-IRBIT expressed in Sf9 cells was incubated with alkaline phosphatase for 30 min at 37° C. prior to the IP3 binding assay described as in (A). (C and D) Scatchard analysis. 0.1 μg of GST-EL was incubated with or without 1 μg of purified His-tagged IRBIT expressed in Sf9 cells as described in (A). Then 2.17 nM [^3H]IP3 and 2-500 nM cold IP3 were added to the samples and incubated for 10 min on ice (total volume was 100 μl). Non-specific binding was measured in the presence of 10 μM cold IP3. [^3H]IP3 binding to GST-EL was measured as described in (A).
# The effect of IRBIT on binding of IP3 to IP3R was examined. GST-EL (0.2 μg) was incubated with 0.1, 1, or 10 μg of purified His-tagged IRBIT expressed in Sf9 cells or E. coli in a solution containing 50 mM Tris-HCl (pH 8.0), 1 mM EDTA, and 1 mM 2-mercaptoethanol, for 30 min on ice. Then 8.7 nM [^3H]IP3 (PerkinElmer Life Sciences) was added to the samples and incubated for 10 min on ice (total volume was 50 μl). The samples were mixed with 2 μl of 50 mg/ml γ-globulin and 50 μl of 30% PEG6000, 50 mM Tris-HCl (pH 8.0), and incubated for 5 min on ice. Non-specific binding was measured in the presence of 10 μM cold IP3. After centrifugation at 20,000×g for 5 min, the precipitate was dissolved in SOLVABLE™ (Packard) and the radioactivity was measured with a liquid scintillation counter (Beckman Coulter). […] 0.1 μg of GST-EL was incubated with or without 1 μg of purified His-tagged IRBIT expressed in Sf9 cells as described in (A). Then 2.17 nM [^3H]IP3 and 2-500 nM cold IP3 were added to the samples and incubated for 10 min on ice (total volume was 100 μl). Non-specific binding was measured in the presence of 10 μM cold IP3. [^3H]IP3 binding to GST-EL was measured as described in (A). […] Bmax was not changed.
# [2] = tested on: sodium bicarbonate cotransporter; test: Immunoprecipitation from mouse cerebellum and mass spectrometry; format: binding; settings: mouse cerebellar cytosol or microsome detergent extract
# Method: (§1) Mouse cerebellar cytosol fraction or detergent extract of microsome fraction was immunoprecipitated with 50 μg of anti-IRBIT antibody or rabbit IgG. Immunoprecipitates were separated by 10% SDS-PAGE gel, and stained with Coomassie Brilliant Blue. The bands were excised from the gel and digested with lysyl endopeptidase and analyzed with mass spectrometry. Arrows indicate the bands of sodium bicarbonate cotransporter.
# as §1, with “Blue (FIG. 13).” for “Blue.”
# T2 sequence (P11881 1-2217 N1264K): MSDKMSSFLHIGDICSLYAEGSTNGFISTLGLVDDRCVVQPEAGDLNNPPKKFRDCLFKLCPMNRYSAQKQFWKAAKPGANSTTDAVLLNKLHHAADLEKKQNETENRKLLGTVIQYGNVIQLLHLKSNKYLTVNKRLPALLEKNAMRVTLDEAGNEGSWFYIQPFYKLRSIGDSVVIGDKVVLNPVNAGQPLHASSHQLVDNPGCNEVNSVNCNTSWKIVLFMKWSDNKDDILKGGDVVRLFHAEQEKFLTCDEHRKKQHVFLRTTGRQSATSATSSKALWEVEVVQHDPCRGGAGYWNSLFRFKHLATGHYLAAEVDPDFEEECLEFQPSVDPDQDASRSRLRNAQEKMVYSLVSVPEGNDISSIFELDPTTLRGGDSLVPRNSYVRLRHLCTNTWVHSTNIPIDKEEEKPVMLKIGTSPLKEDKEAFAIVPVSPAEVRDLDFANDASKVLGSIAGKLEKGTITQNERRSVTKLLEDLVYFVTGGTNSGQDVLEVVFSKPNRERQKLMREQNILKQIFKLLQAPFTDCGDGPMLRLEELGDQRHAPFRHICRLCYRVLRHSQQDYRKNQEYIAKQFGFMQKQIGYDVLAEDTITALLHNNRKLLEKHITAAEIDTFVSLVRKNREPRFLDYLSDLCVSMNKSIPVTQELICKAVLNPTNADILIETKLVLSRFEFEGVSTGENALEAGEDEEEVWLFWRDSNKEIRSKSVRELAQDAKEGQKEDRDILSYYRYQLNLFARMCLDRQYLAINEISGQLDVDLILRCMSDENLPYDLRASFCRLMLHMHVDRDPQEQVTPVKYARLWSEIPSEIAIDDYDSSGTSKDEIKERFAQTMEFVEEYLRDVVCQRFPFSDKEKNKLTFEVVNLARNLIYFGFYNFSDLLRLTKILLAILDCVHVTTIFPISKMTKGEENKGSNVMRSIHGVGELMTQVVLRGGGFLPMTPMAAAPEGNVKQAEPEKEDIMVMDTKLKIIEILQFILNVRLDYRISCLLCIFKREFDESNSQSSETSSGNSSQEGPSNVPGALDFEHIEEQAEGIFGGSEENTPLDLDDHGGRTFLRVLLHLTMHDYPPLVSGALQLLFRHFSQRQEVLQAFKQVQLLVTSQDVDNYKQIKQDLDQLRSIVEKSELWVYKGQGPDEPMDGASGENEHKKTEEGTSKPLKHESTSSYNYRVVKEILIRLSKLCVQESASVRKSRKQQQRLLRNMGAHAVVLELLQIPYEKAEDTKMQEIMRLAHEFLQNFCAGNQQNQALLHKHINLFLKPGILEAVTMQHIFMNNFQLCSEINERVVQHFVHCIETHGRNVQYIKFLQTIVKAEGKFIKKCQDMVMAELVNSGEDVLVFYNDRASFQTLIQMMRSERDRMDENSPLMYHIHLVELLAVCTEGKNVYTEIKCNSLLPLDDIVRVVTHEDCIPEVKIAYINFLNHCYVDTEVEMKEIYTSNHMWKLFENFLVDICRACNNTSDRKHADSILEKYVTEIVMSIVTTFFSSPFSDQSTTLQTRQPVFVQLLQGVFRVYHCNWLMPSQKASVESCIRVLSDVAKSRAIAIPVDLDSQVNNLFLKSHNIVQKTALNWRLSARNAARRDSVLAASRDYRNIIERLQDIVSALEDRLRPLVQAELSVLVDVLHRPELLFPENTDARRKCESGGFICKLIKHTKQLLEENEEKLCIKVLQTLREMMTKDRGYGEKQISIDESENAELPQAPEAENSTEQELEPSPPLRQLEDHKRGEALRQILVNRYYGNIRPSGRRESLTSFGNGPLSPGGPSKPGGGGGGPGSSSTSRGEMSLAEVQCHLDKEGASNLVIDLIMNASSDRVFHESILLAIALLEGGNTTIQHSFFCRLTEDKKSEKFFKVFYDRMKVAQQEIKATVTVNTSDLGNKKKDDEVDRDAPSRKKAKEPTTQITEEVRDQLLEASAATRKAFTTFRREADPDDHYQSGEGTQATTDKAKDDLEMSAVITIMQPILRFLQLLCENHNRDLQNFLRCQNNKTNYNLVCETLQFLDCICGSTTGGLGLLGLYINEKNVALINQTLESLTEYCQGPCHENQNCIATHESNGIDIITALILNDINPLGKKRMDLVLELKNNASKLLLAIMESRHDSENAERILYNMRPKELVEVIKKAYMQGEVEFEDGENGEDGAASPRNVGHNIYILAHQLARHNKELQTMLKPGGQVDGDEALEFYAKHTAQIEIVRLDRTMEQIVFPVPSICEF
# T1 sequence (P11881 whole entry N1264K/P2675L): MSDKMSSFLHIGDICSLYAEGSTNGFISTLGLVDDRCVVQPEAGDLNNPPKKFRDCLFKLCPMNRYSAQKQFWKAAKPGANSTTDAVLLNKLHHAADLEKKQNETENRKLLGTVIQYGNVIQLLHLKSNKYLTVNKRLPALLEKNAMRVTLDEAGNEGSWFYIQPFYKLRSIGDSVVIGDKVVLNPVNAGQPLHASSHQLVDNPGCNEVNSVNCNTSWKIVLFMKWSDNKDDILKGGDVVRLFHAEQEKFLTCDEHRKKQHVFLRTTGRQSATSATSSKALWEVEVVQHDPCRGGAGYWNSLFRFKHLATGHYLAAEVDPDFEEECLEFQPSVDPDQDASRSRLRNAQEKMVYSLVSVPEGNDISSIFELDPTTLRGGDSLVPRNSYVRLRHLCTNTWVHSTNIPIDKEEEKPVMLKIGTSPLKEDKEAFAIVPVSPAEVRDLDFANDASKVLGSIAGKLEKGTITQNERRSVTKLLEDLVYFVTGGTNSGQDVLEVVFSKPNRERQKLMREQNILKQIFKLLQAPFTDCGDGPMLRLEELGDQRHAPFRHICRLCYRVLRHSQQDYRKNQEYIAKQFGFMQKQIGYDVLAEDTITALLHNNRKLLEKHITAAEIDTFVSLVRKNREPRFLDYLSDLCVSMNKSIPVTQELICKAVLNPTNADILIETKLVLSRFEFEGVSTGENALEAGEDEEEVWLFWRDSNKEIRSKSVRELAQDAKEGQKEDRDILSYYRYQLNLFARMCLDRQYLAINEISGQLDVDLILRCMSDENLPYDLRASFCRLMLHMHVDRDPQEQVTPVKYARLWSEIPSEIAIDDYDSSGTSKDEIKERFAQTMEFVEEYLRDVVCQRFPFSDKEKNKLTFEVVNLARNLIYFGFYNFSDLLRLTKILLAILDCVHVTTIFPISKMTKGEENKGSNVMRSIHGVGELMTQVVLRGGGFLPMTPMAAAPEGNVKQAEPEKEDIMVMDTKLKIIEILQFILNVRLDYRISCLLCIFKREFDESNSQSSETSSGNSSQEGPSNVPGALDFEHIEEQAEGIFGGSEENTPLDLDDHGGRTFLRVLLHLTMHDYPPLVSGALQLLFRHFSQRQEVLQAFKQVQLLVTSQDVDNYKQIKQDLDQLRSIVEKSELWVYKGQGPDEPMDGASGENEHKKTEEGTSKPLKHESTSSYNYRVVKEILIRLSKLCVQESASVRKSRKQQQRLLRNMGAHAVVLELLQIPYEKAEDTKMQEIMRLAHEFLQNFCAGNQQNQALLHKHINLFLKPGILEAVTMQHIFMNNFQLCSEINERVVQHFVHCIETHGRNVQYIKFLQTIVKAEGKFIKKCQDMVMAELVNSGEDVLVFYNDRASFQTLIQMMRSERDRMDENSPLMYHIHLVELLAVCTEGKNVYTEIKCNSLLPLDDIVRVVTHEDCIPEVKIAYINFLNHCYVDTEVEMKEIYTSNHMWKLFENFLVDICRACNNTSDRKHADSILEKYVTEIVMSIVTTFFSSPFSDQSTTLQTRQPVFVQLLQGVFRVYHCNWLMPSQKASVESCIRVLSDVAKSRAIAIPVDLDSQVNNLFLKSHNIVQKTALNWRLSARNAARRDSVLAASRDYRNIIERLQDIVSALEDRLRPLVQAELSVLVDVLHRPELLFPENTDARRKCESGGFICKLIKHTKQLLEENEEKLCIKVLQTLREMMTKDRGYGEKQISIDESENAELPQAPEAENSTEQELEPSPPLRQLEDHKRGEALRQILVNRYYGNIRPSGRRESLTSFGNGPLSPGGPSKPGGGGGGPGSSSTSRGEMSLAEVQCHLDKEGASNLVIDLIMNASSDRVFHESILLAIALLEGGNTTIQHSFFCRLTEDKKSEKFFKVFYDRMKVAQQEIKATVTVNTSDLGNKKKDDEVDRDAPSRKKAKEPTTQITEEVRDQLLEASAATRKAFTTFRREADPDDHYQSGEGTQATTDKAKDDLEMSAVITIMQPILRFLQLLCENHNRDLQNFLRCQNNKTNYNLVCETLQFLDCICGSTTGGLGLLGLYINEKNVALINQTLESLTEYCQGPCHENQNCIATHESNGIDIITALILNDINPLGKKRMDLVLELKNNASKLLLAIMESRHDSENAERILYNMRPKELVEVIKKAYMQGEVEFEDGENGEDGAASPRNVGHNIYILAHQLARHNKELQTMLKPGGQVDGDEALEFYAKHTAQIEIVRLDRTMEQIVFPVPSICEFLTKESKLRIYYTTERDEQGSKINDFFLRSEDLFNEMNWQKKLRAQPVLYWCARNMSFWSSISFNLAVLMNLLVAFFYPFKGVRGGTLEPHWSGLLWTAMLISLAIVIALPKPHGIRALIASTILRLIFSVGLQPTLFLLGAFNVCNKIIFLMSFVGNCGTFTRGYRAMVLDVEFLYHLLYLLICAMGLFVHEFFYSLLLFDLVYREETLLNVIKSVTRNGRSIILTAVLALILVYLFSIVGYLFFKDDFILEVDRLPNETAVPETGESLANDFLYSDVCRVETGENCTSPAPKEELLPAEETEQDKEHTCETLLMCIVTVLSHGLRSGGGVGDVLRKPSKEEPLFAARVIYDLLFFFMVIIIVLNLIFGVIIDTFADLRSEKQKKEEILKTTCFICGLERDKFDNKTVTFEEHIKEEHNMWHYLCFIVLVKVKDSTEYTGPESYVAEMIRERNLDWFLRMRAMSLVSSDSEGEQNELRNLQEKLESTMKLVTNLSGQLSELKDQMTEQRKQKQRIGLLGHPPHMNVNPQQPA
molecule,measurement,setting,value
B1,S-adenosylhomocysteine hydrolase activity,[1],no S-adenosylhomocysteine hydrolase activity
same,co-immunoprecipitation of IP3R1 with anti-IRBIT antibody,IP3R1,co-immunoprecipitated
same,effect on IP3 binding of GST-EL after dephosphorylation,GST-EL (IP3R),reduced effect
same,interaction with sodium bicarbonate cotransporter,[2],interacted

# — patent publication US20050181450A1, “Novel inositol 1,4,5-trisphosphate (IP3) receptor-binding protein and an IP3 indicator” (priority 2002, published 2005)
